{
  "source": "patent US20030177513A1",
  "biological_target": "thrombin",
  "experiment": "cell-based or functional assay",
  "data": [
    {"substance": "recombinant human Antithrombin III (ATIII) in the milk of the cloned transgenic goat CFF6-1 (from UniProt P01008 33-464)", "values": [
      {"measurement": "ATIII activity by thrombin inhibition (two-stage colorimetric endpoint assay), milk at day 5", "result": 20.5, "unit": "U/ml"},
      {"measurement": "ATIII activity by thrombin inhibition (two-stage colorimetric endpoint assay), milk at day 9", "result": 14.6, "unit": "U/ml"}
    ]}
  ]
}
